According to US12448462 (dated 2025):
Like-named read-outs stand apart in the source and are kept apart here.

How the values were obtained:
[1] = target: T1, MUC1 (MUC1-C) on cells (UniProt P15941 24-1255); test: flow
[2] = target: T1, MUC1 (MUC1-C) on cells; test: flow; remark: listed apart in the source

B1: T4E3 scFv-Fc (Fc fusion)
VH: QVQLVQSGGGLVQPGGSLRLSCAASGFTFDDYAMHWVRQAPGKGLEWVSGISWNSGSIGYADSVKGRFTISRDNAKNSLYLQMNSLRAEDTALYYCAKDIGSGSYYNYYYGMDVWGQGTTATISS
VL: SSELTQDPAVSVALGQTVRITCQGDSLRSYYASWYQQKPGQAPVLVIYGKNSRPSGIPDRFSGSNSGSTASLTITGAQAEDEADYYCNSRDRYGNSLVIFGGGTKLTVL
- EC50 [1]: 0.033 µg/mL
- EC50 [2]: 0.033 µg/mL
